Test results as given in doi:10.1101/2024.12.16.628271.

Experiments:
[1] = molecular target: Corynebacterium glutamicum PafA (proteasome accessory factor A; Pup ligase) (Corynebacterium glutamicum) (UniProt Q8NQE1); experiment: SEC-MALS
[2] = molecular target: Corynebacterium glutamicum PafA (proteasome accessory factor A; Pup ligase) (Corynebacterium glutamicum) (UniProt Q8NQE1); experiment: SEC
[3] = molecular target: Corynebacterium glutamicum PafA (proteasome accessory factor A; Pup ligase) (Corynebacterium glutamicum) (UniProt Q8NQE1); experiment: HDX-MS

Corynebacterium glutamicum PafA (proteasome accessory factor A; Pup ligase) (from UniProt Q8NQE1 1-482) (enzyme)
stoichiometry N [1]: 2
Kd [2]: > 1100 µM
koff [2]: 4.72e-05 s⁻¹
average k open of PafA dimer dissociation (HDX-MS, EX1) [3]: 0.06 h⁻¹
